This series has as its target ComPC1-CRM197 fusion protein.

The values that follow come from patent US20240207383.

B1: PglS oligosaccharyltransferase (protein)
chain: MNSIFKKIKNYTIVSGVFFLGSAFIIPNTSNLSSTLYKELIAVLGLLILLTVKSFDYKKILIPKNFYWFLFVIFIIFIQLIVGEIYFFQDFFFSISFLVILFLSFLLGFNERLNGDDLIVKKIAWIFIIVVQISFLIAINQKIEIVQNFFLFSSSYNGRSTANLGQPNQFSTLILITLFLLCYLREKNSLNNMVFNILSFCLIFANVMTQSRSAWISVILISLLYLLKFQKKIELRRVIFFNIVFWTLVYCVPLLFNLIFFQKNSYSTFDRLTMGSSRFEIWPQLLKAVFHKPFIGYGWGQTGVAQLETINKSSTKGEWFTYSHNLFLDLMLWNGFFIGLIISILILCFLIELYSSIKNKSDLFLFFCVVAFFVHCLLEYPFAYTYFLIPVGFLCGYISTQNIKNSISYFNLSKRKLTLFLGCCWLGYVAFWVEVLDISKKNEIYARQFLFSNHVKFYNIENYILDGFSKQLDFQYLDYCELKDKYQLLDFKKVAYRYPNASIVYKYYSISAEMKMDQKSANQIIRAYSVIKNQKIIKPKLKFCSIEY
For the protein B1, the “glycosylation with CPS8, Western blot of periplasmic extracts (anti-His)” value is “the ComPC1-CRM197 was also glycosylated by PglS”.
